# Laboratory results published in IntAct's records for PubMed 21247419.
# B1: Dexamethasone-induced Ras-related protein 1 (Mus musculus), O35626 (parent)
# chain: MKLAAMIKKMCPSDSELSIPAKNCYRMVILGSSKVGKTAIVSRFLTGRFEDAYTPTIEDFHRKFYSIRGEVYQLDILDTSGNHPFPAMRRLSILTGDVFILVFSLDNRDSFEEVQRLKQQILDTKSCLKNKTKENVDVPLVICGNKGDRDFYREVEQREIEQLVGDDPQRCAYFEISAKKNSSLDQMFRALFAMAKLPSEMSPDLHRKVSVQYCDVLHKKALRNKKLLRAGSGGGGDHGDAFGILAPFARRPSVHSDLMYIREKTSVGSQAKDKERCVIS
# partner: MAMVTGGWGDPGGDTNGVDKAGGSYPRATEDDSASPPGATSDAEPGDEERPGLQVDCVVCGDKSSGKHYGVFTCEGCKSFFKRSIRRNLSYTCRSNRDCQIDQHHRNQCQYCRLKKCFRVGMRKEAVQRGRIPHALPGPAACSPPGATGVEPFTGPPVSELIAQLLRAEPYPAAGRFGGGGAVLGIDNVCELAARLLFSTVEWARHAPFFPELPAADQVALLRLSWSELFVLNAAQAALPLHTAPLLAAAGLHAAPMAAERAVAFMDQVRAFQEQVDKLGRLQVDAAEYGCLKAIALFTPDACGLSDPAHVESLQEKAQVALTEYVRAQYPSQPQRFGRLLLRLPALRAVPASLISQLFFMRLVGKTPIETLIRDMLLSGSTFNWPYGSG
# Variants of: B1
# Conditions: with nr2f6_mouse Nr2f6, P43136
row,effect of a mutation on the interaction,Variant
1,decreasing interaction,MKLAAMIKKMCPSDSELSIPAKNCYRMVILGSSKVGKTAIVSRFLTGRFEDAYTPTIEDFHRKFYSIRGEVYQLDILDTSANHPFPAMRRLSILTGDVFILVFSLDNRDSFEEVQRLKQQILDTKSCLKNKTKENVDVPLVICGNKGDRDFYREVEQREIEQLVGDDPQRCAYFEISAKKNSSLDQMFRALFAMAKLPSEMSPDLHRKVSVQYCDVLHKKALRNKKLLRAGSGGGGDHGDAFGILAPFARRPSVHSDLMYIREKTSVGSQAKDKERCVIS [G81A]
2,decreasing interaction,MKLAAMIKKMCPSDSELSIPAKNCYRMVILGSSNVGKTAIVSRFLTGRFEDAYTPTIEDFHRKFYSIRGEVYQLDILDTSGNHPFPAMRRLSILTGDVFILVFSLDNRDSFEEVQRLKQQILDTKSCLKNKTKENVDVPLVICGNKGDRDFYREVEQREIEQLVGDDPQRCAYFEISAKKNSSLDQMFRALFAMAKLPSEMSPDLHRKVSVQYCDVLHKKALRNKKLLRAGSGGGGDHGDAFGILAPFARRPSVHSDLMYIREKTSVGSQAKDKERCVIS [K34N]
